The RNAGym collection of RNA variant scans (doi:10.1101/gr.219683.116)

B1: mRNA-splicing (parent)
chain: AGUUGCUGCUGGGAGCUCCAGCACAGUGAAAUGGACAGAAGGGCAGAGCAA

Variants of: B1
Experiment: exon inclusion enrichment index; higher = more inclusion; WT1 exon 5 minigene, HEK293

Going from G2U G5A C6G U7G C9A to G2U G5A C6U U7A G8U C9A, the “exon inclusion enrichment index” value rises from 0.0266 to 0.188.

Going from G2U G5A U7C G8A U10C to G2U G5C C6A U7C G8A U10A, the “exon inclusion enrichment index” value falls from 3.56 to 0.329.

Going from G2U G5C C6G U7C U10C to G2U G5C C6U G8C C9U U10C, the “exon inclusion enrichment index” value falls from 4.96 to 3.26.

Going from G2U G5U G8U C9U to G2U U3A, the “exon inclusion enrichment index” value rises from 0.329 to 0.342.

Going from G2U U3A C6A U7A C9A U10A to G2U U3A C6A U7C C9A U10C, the “exon inclusion enrichment index” value rises from 1.45 to 4.33.

Going from G2U U3A G5A C6G U7G C9A to G2U U3A G5A C6U U7A G8U C9A, the “exon inclusion enrichment index” value rises from 0.0451 to 0.247.

Going from G2U U3A G5A U7C G8A U10C to G2U U3A G5C C6A U7C G8A U10A, the “exon inclusion enrichment index” value falls from 3.36 to 0.383.

First: G2U U3A G5C C6G U7C U10C
Second: G2U U3A G5C C6U G8C C9U U10C
The “exon inclusion enrichment index” value of the first is higher: 5.21 for the first, 3.36 for the second.

First: G2U U3A G5U G8U C9U
Second: G2U U3C
The “exon inclusion enrichment index” value of the first is higher: 0.51 for the first, 0.216 for the second.

Going from G2U U3C C6A U7A C9A U10A to G2U U3C C6A U7C C9A U10C, the “exon inclusion enrichment index” value rises from 2.31 to 4.67.

First: G2U U3C G5A C6G U7G C9A
Second: G2U U3C G5A C6U U7A G8U C9A
The “exon inclusion enrichment index” value of the first is lower: 0.0791 for the first, 0.557 for the second.

Going from G2U U3C G5A U7C G8A U10C to G2U U3C G5C C6A U7C G8A U10A, the “exon inclusion enrichment index” value falls from 4.11 to 0.619.

Going from G2U U3C G5C C6G U7C U10C to G2U U3C G5C C6U G8C C9U U10C, the “exon inclusion enrichment index” value falls from 5.85 to 3.63.

Compared with G2U U3C G5U G8U C9U, G2U U3G is lower in “exon inclusion enrichment index” value: 0.965 for the first, 0.359 for the second.

Compared with G2U U3G C6A U7A C9A U10A, G2U U3G C6A U7C C9A U10C is higher in “exon inclusion enrichment index” value: 2.07 for the first, 4.84 for the second.

Going from G2U U3G G5A C6G U7G C9A to G2U U3G G5A C6U U7A G8U C9A, the “exon inclusion enrichment index” value rises from 0.0222 to 0.348.

First: G2U U3G G5A U7C G8A U10C
Second: G2U U3G G5C C6A U7C G8A U10A
The “exon inclusion enrichment index” value of the first is higher: 4.12 for the first, 0.503 for the second.

Going from G2U U3G G5C C6G U7C U10C to G2U U3G G5C C6U G8C C9U U10C, the “exon inclusion enrichment index” value falls from 5.1 to 3.99.

Compared with G2U U3G G5U G8U C9U, U3A is lower in “exon inclusion enrichment index” value: 0.724 for the first, 0.364 for the second.

Compared with U3A C6A U7A C9A U10A, U3A C6A U7C C9A U10C is higher in “exon inclusion enrichment index” value: 0.664 for the first, 3.37 for the second.

Going from U3A G5A C6G U7G C9A to U3A G5A C6U U7A G8U C9A, the “exon inclusion enrichment index” value rises from 0.0155 to 0.265.

Compared with U3A G5A U7C G8A U10C, U3A G5C C6A U7C G8A U10A is lower in “exon inclusion enrichment index” value: 3.2 for the first, 0.475 for the second.

Compared with U3A G5C C6G U7C U10C, U3A G5C C6U G8C C9U U10C is lower in “exon inclusion enrichment index” value: 4.21 for the first, 2.74 for the second.

Going from U3A G5U G8U C9U to U3A U4A, the “exon inclusion enrichment index” value falls from 0.513 to 0.0787.

Compared with U3A U4A C6A U7A C9A U10A, U3A U4A C6A U7C C9A U10C is higher in “exon inclusion enrichment index” value: 0.441 for the first, 1.08 for the second.

Going from U3A U4A G5A C6G U7G C9A to U3A U4A G5A C6U U7A G8U C9A, the “exon inclusion enrichment index” value rises from 0.0117 to 0.0823.

First: U3A U4A G5A U7C G8A U10C
Second: U3A U4A G5C C6A U7C G8A U10A
The “exon inclusion enrichment index” value of the first is higher: 2.15 for the first, 0.0877 for the second.

First: U3A U4A G5C C6G U7C U10C
Second: U3A U4A G5C C6U G8C C9U U10C
The “exon inclusion enrichment index” value of the first is higher: 3.05 for the first, 1.8 for the second.

First: U3A U4A G5U G8U C9U
Second: U3A U4C
The “exon inclusion enrichment index” value of the first is lower: 0.296 for the first, 0.355 for the second.

Going from U3A U4C C6A U7A C9A U10A to U3A U4C C6A U7C C9A U10C, the “exon inclusion enrichment index” value rises from 1.27 to 4.11.

Going from U3A U4C G5A C6G U7G C9A to U3A U4C G5A C6U U7A G8U C9A, the “exon inclusion enrichment index” value rises from 0.0761 to 0.3.

Compared with U3A U4C G5A U7C G8A U10C, U3A U4C G5C C6A U7C G8A U10A is lower in “exon inclusion enrichment index” value: 2.99 for the first, 0.389 for the second.

First: U3A U4C G5C C6G U7C U10C
Second: U3A U4C G5C C6U G8C C9U U10C
The “exon inclusion enrichment index” value of the first is higher: 3.45 for the first, 2.23 for the second.

Compared with U3A U4C G5U G8U C9U, U3A U4G is lower in “exon inclusion enrichment index” value: 0.407 for the first, 0.0422 for the second.

Compared with U3A U4G C6A U7A C9A U10A, U3A U4G C6A U7C C9A U10C is higher in “exon inclusion enrichment index” value: 0.245 for the first, 1.54 for the second.

Compared with U3A U4G G5A C6G U7G C9A, U3A U4G G5A C6U U7A G8U C9A is higher in “exon inclusion enrichment index” value: 0.018 for the first, 0.0692 for the second.

First: U3A U4G G5A U7C G8A U10C
Second: U3A U4G G5C C6A U7C G8A U10A
The “exon inclusion enrichment index” value of the first is higher: 3.06 for the first, 0.0901 for the second.

First: U3A U4G G5C C6G U7C U10C
Second: U3A U4G G5C C6U G8C C9U U10C
The “exon inclusion enrichment index” value of the first is higher: 1.31 for the first, 0.155 for the second.

First: U3A U4G G5U G8U C9U
Second: U3C
The “exon inclusion enrichment index” value of the first is higher: 0.143 for the first, 0.011 for the second.

First: U3C C6A U7A C9A U10A
Second: U3C C6A U7C C9A U10C
The “exon inclusion enrichment index” value of the first is lower: 1.1 for the first, 3.44 for the second.

Compared with U3C G5A C6G U7G C9A, U3C G5A C6U U7A G8U C9A is higher in “exon inclusion enrichment index” value: 0.00112 for the first, 0.098 for the second.

Compared with U3C G5A U7C G8A U10C, U3C G5C C6A U7C G8A U10A is lower in “exon inclusion enrichment index” value: 1.28 for the first, 0.0284 for the second.
